Test results published in the DeepSol protein solubility set.

test: soluble on expression in E. coli; label from the status in PepcDB or PDB records

Row | Sequence | soluble on expression in E. coli
1 | MKAARQQAIVDLLINHKSLTTEALATRLNVSKETIRRDLSELQTQGKVLRNHGRAKYIHRENQDSGDPFHIRLKSHYAHKADIAREALAWIEEGMTIALDASSTCWYLARQLPDIPIQVFTNSHPICQELGKRERIALISSGGQLERKYGCYVNPSLISQLKSLDIDLFIFSCEGIDGGGDLWDSNAINADFKSILLRRASQSLLLIDKSKFNRSGEARIGHLDDVTHIVSDAPQSLEHHHHHH | not soluble
2 | MKAFEFLYEDFQRGLTVVLDKGLPPKFVEDYLKVCGDYIDFVKFGWGTSAVIDRDVVKEKINYYKDWGIKVYPGGTLFEYAYSKGKFDEFLNECEKLGFEAVEISDGSSDISLEERNNAIKRAKDNGFMVLTEVGKKMPDKDKQLTIDDRIKLINFDLDAGADYVIIEGRESGKGKGLFDKEGKVKENELDVLAKNVDINKVIFEAPQKSQQVAFILKFGSSVNLANIAFDEVISLETLRRGLRGDTFGKV | soluble
3 | MKAILQRSIALLALAAGMSSVACADEVKMRVLGWYGNQPQSQQVERPFWKDLPKRSNGAFSANFRTIDELGLKGFESLRTLQSGAFDVVSFQISFVGGDAPVLMGADLPGAAFDFDQLQKNLDAYRPILEKELNDRFKAKLLTAWSFPFQILYCKGDIKTLDDLKGKKVRVSGTYTAKMVADLNAAGATLAGPEVYQGLMQGVVDCAITGSQYGNSNDWFEVAHSLSPIPLGGAGVVLQVARNAFWDKLSADQQAALSAEMKQLETALWDISRKGHEDGINCNVGKQPCTGKPGKMQLVEPTEADVREVKQLLKTSIVPMWIEDCSKFSKTCGDDWFRTIGAAAGIARLEHHHHHH | not soluble
4 | MKALLEWIRKDMKPALGVTEPAAIALACAAARAMTEEPAECLLVRENSGIYKNAFTCGIPGTDKIGNEFAAALGCVAGDKEKGLLVLEEISDADVEAAKRFIEDGKVKVEVSQISSELFIYACVRTEHDCCEAEIRGQHTNICRLVKNGRVLLEKKTRELEETARPGSLTDYTMEEFFRFAKETPVEDLYFIREAYRVNLELAKAALTSERCTLTKSLLAFNGGTDVSGDLRATARFFAGAASEARVLGLDKPAMSITGSGNHGIICTMPLYAMYRVEHHSEESLLRATVLSYLITMYMKEYSGKLSAFCGCAVAAGTGMACAMTFMRGGGFEEVLATLNNMAASIVGMICTGGNHACCMKVLAAVDTAVTSTELALSGKCISPEHGVADVCPEKTMQNIGLIAYPGMTETERVILEIMQNKKGGAKGHEETD | not soluble
5 | MKALTYHGPHHVKVENVPDPGIEQPDDIILRVTATAICGSDLHLYRGKIPQVKHGDIFGHEFMGEVVETGHDVKNIRKGDRVVIPFVIACGDCFFCRLQQYSACENTNDGHGAAMNKKQIPPPAALFGYSHLYGGVPGGQAEYVRVPKGNVGPFKVPPLLSDDKALFLSDILPTAWQAAKNAQIQQGFSVAVFGAGPVGLLTIACARLLGAEQIFVVDHHAWRLRFAEERYGAIPINFDDENDPAEKIIEQTAGHRGVDAVIDAVGFEAKGSLTETVLTNLKLEGSSGKALRQCIAAVRRGGVVSVPGVYAGFIHGFLFGDAFDKGLTFKMGQTHVHAWLGELLPLIEKGLLKPEEIVTHYMPFEEAARGYEIFEKREEECRKVILVPGATSAQAAQKQATGVVNPMPGGVV | not soluble
6 | MKANTIIAGLLSSTLLATAAYAQTPAPADSTRTMSKSTSASESQHMGQWRASKLIGVNVYNQGNEKLGDISEMLIDSEGRIQGVVIGVGGFLGVGQRDVAVTFDKLQWVNTPVSSNTAMNSQTTPAGSGTSTASPAGTTTGAATSTTAANNADRWYPDHAVLNATKDQLKSMPEFKYSK | not soluble
